Target: T1, cathepsin B (Bos taurus, UniProt P07688)
T1 construct: cathepsin B (bovine spleen; EMD Biosciences); purchased EMD Biosciences; host or cells: bovine spleen (tissue-derived enzyme)
Experiment: In vitro cleavage of conjugate by cathepsin B
Assay type: biochemical, bovine
Conditions: 4.6 μM conjugate, 0.9 μM cathepsin B, pH 6.0, 37° C., 0-26 h
Experimental: huC242-3b conjugate (4.6 μM) was incubated with 0.9 μM cathepsin B (bovine spleen; EMD Biosciences) in pH 6.0 buffer containing 0.6 mM CaCl2/MgCl2 and 2 mM DTT (dithiothreitol) at 37° C. 100 μl aliquots were taken at various time points (0, 1, 3, 8, 17, and 26 h) and free maytansinoids were quantified using a mixed-mode chromatography method (Fleming, et al, Analytical Biochemistry, 2005, 340, 272). Briefly, a HISEP shielded hydrophobic phase column (5 μm particle size, 4.6×250 mm length, Supelco, Bellefonte, Pa., USA) was used for analyzing Ab-DM1 conjugates. Detection was at 252 and 280 nm (extracted from PDA spectra). The flow rate was 0.7 ml/min. Mobile phase A consisted of 100 mM ammonium acetate (pH 7.0). Mobile phase B was 100% acetonitrile. The column was equilibrated at 25% B followed by a linear gradient over 25 min to 40% B after sample injection. […] Synthesized compound 5 had the same retention time and mass spectrum as this metabolite.

B1: huC242-3b: huC242 antibody conjugated via SMCC linker to compound 2; 3.3 maytansinoids per antibody (conjugate, chains of the INN, looked up)
VH: QVQLVQSGAEVKKPGETVKISCKASDYTFTYYGMNWVKQAPGQGLKWMGWIDTTTGEPTYAQKFQGRIAFSLETSASTAYLQIKSLKSEDTATYFCARRGPYNWYFDVWGQGTTVTVSS
VL: DIVMTQSPLSVPVTPGEPVSISCRSSKSLLHSNGNTYLYWFLQRPGQSPQLLIYRMSNLVSGVPDRFSGSGSGTAFTLRISRVEAEDVGVYYCLQHLEYPFTFGPGTKLELK
modifications: SMCC-linked maytansinoid compound 2, DAR 3.3
notes: huC242 antibody conjugated via SMCC linker to compound 2; 3.3 maytansinoids per antibody
  released metabolite on cathepsin B cleavage: sole released metabolite 5 was detected

— patent publication US10494423B2, “Maytansinoid derivatives with peptide linker and conjugates thereof” (priority 2011, dated 2019)
